Molecular target: the molecule itself
Test: methyl-TROSY NMR spectra compared

B1: Bpa 45-153 (domain or fragment)
chain: AKVMRIGTMIKQLLEEVRAAPLDEASRNRLRDIHATSIRELEDGLAPELREELDRLTLPFNEDAVPSDAELRIAQAQLVGWLEGLFHGIQTALFAQQMAARAQLQQMRQ
For B1, the “stoichiometry N” value was 4 subunits.
